T1: SNTG1, Q9NSN8
T1 sequence (Q9NSN8 52-150, limits assumed, looked up): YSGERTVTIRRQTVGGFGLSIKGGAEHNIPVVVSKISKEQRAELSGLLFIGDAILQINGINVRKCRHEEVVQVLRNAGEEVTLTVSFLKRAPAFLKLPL

T2: NHERF3_1, Q5T2W1
T2 sequence (Q5T2W1 4-100, limits assumed, looked up): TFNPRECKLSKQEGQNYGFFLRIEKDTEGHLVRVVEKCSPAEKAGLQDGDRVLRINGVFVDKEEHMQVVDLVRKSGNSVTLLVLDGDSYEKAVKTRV

T3: LNX2_2, Q8N448
T3 sequence (Q8N448 334-432, limits assumed, looked up): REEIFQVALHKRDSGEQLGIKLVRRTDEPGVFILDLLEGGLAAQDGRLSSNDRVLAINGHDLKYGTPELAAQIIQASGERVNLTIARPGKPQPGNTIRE

T4: NHERF3_4, Q5T2W1
T4 sequence (Q5T2W1 373-468, limits assumed, looked up): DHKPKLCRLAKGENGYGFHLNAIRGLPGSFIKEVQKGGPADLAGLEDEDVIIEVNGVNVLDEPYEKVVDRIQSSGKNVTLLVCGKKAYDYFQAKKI

T5: LIN7C, Q9NUP9
T5 sequence (Q9NUP9 88-185, limits assumed, looked up): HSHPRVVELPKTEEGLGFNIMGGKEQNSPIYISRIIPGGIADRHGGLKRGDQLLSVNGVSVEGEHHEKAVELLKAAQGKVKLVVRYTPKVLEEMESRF

T6: RHPN1, Q8TCX5
T6 sequence (Q8TCX5 508-602, limits assumed, looked up): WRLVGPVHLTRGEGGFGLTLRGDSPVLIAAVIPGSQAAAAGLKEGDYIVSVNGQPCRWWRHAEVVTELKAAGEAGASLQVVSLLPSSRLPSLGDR

T7: MPP2, Q14168
T7 sequence (Q14168 180-250, limits assumed, looked up): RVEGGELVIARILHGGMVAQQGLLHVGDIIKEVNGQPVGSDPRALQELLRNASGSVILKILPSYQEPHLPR

T8: DLG3_2, Q92796
T8 sequence (Q92796 221-321, limits assumed, looked up): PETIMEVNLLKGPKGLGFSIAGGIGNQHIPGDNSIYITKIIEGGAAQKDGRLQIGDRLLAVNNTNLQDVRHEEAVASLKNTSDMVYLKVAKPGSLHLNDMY

T9: DFNB31_3, Q9P202
T9 sequence (Q9P202 811-907, limits assumed, looked up): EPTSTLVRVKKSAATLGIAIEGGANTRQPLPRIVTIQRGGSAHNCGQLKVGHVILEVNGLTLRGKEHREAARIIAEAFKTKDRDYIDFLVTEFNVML

B1: GRIN1, Q05586;Q05586-2 (peptide)
chain: LSDPSVSTVV

biological target: T1, SNTG1, Q9NSN8; assay: holdup assay; parameters: key: below the threshold = too weak to quantify, mostly under pKd 3.1 to 4; conditions: plain residues with an end cap or a label only (N-terminal biotin on a linker: ahx)

pKd	Binder
below the threshold	B1

biological target: T2, NHERF3_1, Q5T2W1; assay: holdup assay; parameters: key: below the threshold = too weak to quantify, mostly under pKd 3.1 to 4; conditions: plain residues with an end cap or a label only (N-terminal biotin on a linker: ahx)

pKd	Binder
below the threshold	B1

biological target: LNX1_1, Q8TBB1; assay: holdup assay; parameters: key: below the threshold = too weak to quantify, mostly under pKd 3.1 to 4; conditions: plain residues with an end cap or a label only (N-terminal biotin on a linker: ahx)
Sequence (Q8TBB1 261-371): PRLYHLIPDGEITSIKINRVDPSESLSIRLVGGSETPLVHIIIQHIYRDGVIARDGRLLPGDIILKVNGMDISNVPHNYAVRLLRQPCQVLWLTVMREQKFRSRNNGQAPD

pKd	Binder
4.17	B1

biological target: NHERF2_2, Q15599; assay: holdup assay; parameters: key: below the threshold = too weak to quantify, mostly under pKd 3.1 to 4; conditions: plain residues with an end cap or a label only (N-terminal biotin on a linker: ahx)
Sequence (Q15599 142-238): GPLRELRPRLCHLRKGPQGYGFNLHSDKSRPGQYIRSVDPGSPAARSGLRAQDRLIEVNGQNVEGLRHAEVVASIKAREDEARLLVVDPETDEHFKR

pKd	Binder
below the threshold	B1

biological target: PDZRN4_1, Q6ZMN7; assay: holdup assay; parameters: key: below the threshold = too weak to quantify, mostly under pKd 3.1 to 4; conditions: plain residues with an end cap or a label only (N-terminal biotin on a linker: ahx)
Sequence (Q6ZMN7 213-318): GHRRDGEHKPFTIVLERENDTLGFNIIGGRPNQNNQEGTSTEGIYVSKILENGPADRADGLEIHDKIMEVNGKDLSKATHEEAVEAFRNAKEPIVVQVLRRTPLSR

pKd	Binder
below the threshold	B1

biological target: DLG4_2, P78352; assay: holdup assay; parameters: key: below the threshold = too weak to quantify, mostly under pKd 3.1 to 4; conditions: plain residues with an end cap or a label only (N-terminal biotin on a linker: ahx)
Sequence (P78352 155-259): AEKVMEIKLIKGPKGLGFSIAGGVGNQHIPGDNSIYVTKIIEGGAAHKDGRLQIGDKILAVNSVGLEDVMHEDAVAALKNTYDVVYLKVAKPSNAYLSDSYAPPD

pKd	Binder
4.31	B1

biological target: T3, LNX2_2, Q8N448; assay: holdup assay; parameters: key: below the threshold = too weak to quantify, mostly under pKd 3.1 to 4; conditions: plain residues with an end cap or a label only (N-terminal biotin on a linker: ahx)

pKd	Binder
4.64	B1

biological target: T4, NHERF3_4, Q5T2W1; assay: holdup assay; parameters: key: below the threshold = too weak to quantify, mostly under pKd 3.1 to 4; conditions: plain residues with an end cap or a label only (N-terminal biotin on a linker: ahx)

pKd	Binder
below the threshold	B1

biological target: T5, LIN7C, Q9NUP9; assay: holdup assay; parameters: key: below the threshold = too weak to quantify, mostly under pKd 3.1 to 4; conditions: plain residues with an end cap or a label only (N-terminal biotin on a linker: ahx)

pKd	Binder
below the threshold	B1

biological target: NHERF4_2, Q86UT5; assay: holdup assay; parameters: key: below the threshold = too weak to quantify, mostly under pKd 3.1 to 4; conditions: plain residues with an end cap or a label only (N-terminal biotin on a linker: ahx)
Sequence (Q86UT5 220-308): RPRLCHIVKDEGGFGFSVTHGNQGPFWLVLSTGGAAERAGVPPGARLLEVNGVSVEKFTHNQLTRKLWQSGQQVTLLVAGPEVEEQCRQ

pKd	Binder
below the threshold	B1

biological target: T6, RHPN1, Q8TCX5; assay: holdup assay; parameters: key: below the threshold = too weak to quantify, mostly under pKd 3.1 to 4; conditions: plain residues with an end cap or a label only (N-terminal biotin on a linker: ahx)

pKd	Binder
4.47	B1

biological target: T7, MPP2, Q14168; assay: holdup assay; parameters: key: below the threshold = too weak to quantify, mostly under pKd 3.1 to 4; conditions: plain residues with an end cap or a label only (N-terminal biotin on a linker: ahx)

pKd	Binder
below the threshold	B1

biological target: FRMPD3, Q5JV73; assay: holdup assay; parameters: key: below the threshold = too weak to quantify, mostly under pKd 3.1 to 4; conditions: plain residues with an end cap or a label only (N-terminal biotin on a linker: ahx)
Sequence (Q5JV73 12-100): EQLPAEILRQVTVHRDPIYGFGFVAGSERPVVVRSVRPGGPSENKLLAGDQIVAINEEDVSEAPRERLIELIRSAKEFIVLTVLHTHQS

pKd	Binder
below the threshold	B1

biological target: PTPN3, P26045; assay: holdup assay; parameters: key: below the threshold = too weak to quantify, mostly under pKd 3.1 to 4; conditions: plain residues with an end cap or a label only (N-terminal biotin on a linker: ahx)
Sequence (P26045 505-587): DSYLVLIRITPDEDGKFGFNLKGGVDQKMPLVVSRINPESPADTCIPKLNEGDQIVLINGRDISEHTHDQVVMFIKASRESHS

pKd	Binder
below the threshold	B1

biological target: MAGI1_2, Q96QZ7; assay: holdup assay; parameters: key: below the threshold = too weak to quantify, mostly under pKd 3.1 to 4; conditions: plain residues with an end cap or a label only (N-terminal biotin on a linker: ahx)
Sequence (Q96QZ7 456-580): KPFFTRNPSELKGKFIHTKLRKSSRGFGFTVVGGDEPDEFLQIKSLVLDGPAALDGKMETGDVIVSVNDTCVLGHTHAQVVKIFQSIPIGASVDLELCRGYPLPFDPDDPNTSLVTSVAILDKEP

pKd	Binder
below the threshold	B1

biological target: MAST1, Q9Y2H9; assay: holdup assay; parameters: key: below the threshold = too weak to quantify, mostly under pKd 3.1 to 4; conditions: plain residues with an end cap or a label only (N-terminal biotin on a linker: ahx)
Sequence (Q9Y2H9 962-1065): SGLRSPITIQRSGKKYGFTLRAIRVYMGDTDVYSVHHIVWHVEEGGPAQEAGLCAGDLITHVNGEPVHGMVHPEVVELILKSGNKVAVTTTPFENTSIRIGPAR

pKd	Binder
below the threshold	B1

biological target: GORASP2, Q9H8Y8; assay: holdup assay; parameters: key: below the threshold = too weak to quantify, mostly under pKd 3.1 to 4; conditions: plain residues with an end cap or a label only (N-terminal biotin on a linker: ahx)

pKd	Binder
below the threshold	B1

biological target: T8, DLG3_2, Q92796; assay: holdup assay; parameters: key: below the threshold = too weak to quantify, mostly under pKd 3.1 to 4; conditions: plain residues with an end cap or a label only (N-terminal biotin on a linker: ahx)

pKd	Binder
4.58	B1

biological target: DLG4_1, P78352; assay: holdup assay; parameters: key: below the threshold = too weak to quantify, mostly under pKd 3.1 to 4; conditions: plain residues with an end cap or a label only (N-terminal biotin on a linker: ahx)
Sequence (P78352 62-152): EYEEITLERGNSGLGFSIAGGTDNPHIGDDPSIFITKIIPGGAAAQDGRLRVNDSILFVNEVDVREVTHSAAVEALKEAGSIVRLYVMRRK

pKd	Binder
4.1	B1

biological target: T9, DFNB31_3, Q9P202; assay: holdup assay; parameters: key: below the threshold = too weak to quantify, mostly under pKd 3.1 to 4; conditions: plain residues with an end cap or a label only (N-terminal biotin on a linker: ahx)

pKd	Binder
below the threshold	B1

biological target: Inadl_8, Q8NI35; assay: holdup assay; parameters: key: below the threshold = too weak to quantify, mostly under pKd 3.1 to 4; conditions: plain residues with an end cap or a label only (N-terminal biotin on a linker: ahx)
Sequence (Q8NI35 1425-1530): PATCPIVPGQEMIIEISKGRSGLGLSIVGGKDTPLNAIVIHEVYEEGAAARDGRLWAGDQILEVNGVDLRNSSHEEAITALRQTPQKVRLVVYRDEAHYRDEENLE

pKd	Binder
below the threshold	B1

biological target: GORASP1, Q9BQQ3; assay: holdup assay; parameters: key: below the threshold = too weak to quantify, mostly under pKd 3.1 to 4; conditions: plain residues with an end cap or a label only (N-terminal biotin on a linker: ahx)
Sequence (Q9BQQ3 1-208): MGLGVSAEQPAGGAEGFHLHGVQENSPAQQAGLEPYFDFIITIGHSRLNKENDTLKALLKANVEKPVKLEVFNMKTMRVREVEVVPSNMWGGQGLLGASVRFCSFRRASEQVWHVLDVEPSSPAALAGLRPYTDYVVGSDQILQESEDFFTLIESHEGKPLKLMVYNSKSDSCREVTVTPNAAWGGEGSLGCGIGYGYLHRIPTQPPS

pKd	Binder
below the threshold	B1

biological target: TJP1_2, Q07157; assay: holdup assay; parameters: key: below the threshold = too weak to quantify, mostly under pKd 3.1 to 4; conditions: plain residues with an end cap or a label only (N-terminal biotin on a linker: ahx)
Sequence (Q07157 181-274): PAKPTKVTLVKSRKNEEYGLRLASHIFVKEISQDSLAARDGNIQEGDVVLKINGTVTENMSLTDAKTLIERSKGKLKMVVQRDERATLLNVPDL

pKd	Binder
below the threshold	B1

biological target: SCRIB_1, Q14160; assay: holdup assay; parameters: key: below the threshold = too weak to quantify, mostly under pKd 3.1 to 4; conditions: plain residues with an end cap or a label only (N-terminal biotin on a linker: ahx)
Sequence (Q14160 718-814): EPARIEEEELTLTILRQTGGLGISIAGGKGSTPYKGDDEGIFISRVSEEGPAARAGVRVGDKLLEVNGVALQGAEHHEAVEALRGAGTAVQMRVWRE

pKd	Binder
below the threshold	B1

biological target: MAGI2_3, Q86UL8; assay: holdup assay; parameters: key: below the threshold = too weak to quantify, mostly under pKd 3.1 to 4; conditions: plain residues with an end cap or a label only (N-terminal biotin on a linker: ahx)
Sequence (Q86UL8 600-682): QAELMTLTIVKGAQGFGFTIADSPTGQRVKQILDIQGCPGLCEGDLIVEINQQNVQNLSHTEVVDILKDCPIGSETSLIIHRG

pKd	Binder
below the threshold	B1

Reference: publication PMC9482650, “Quantitative fragmentomics allow affinity mapping of interactomes” (Nature Communications, 2022)
